Key:
[1] = biological target: human PD-L1 expressed on 300.19 cells (human) (UniProt Q9NZQ7); test: FACS blockade, B7-1-hIgG on 300-hPD-L1 cells, mAb 0.313 ug/ml
[2] = biological target: human PD-L1 expressed on 300.19 cells (human) (UniProt Q9NZQ7); test: FACS competition, PD-1-Ig on hPD-L1 300 cells, mAb 30 ug/ml
[3] = biological target: T1, human PD-L2 expressed on 300.19 cells (human) (UniProt Q9BQ51); test: FACS on hPD-L2 300 cells, antibody 10 ug/ml
T1 sequence: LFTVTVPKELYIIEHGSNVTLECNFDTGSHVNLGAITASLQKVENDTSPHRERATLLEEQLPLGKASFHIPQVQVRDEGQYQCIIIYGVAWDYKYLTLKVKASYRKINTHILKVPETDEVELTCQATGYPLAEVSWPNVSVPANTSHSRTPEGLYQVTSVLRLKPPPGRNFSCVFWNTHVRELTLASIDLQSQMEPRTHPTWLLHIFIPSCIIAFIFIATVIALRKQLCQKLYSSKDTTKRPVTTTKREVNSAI

[4] = biological target: human PD-L1 expressed on 300.19 cells (human) (UniProt Q9NZQ7); test: FACS competition, PD-1-Ig on hPD-L1 300 cells, mAb 0.12 ug/ml
[5] = biological target: human PD-L1 expressed on 300.19 cells (human) (UniProt Q9NZQ7); test: FACS competition, PD-1-Ig on hPD-L1 300 cells, mAb 0.37 ug/ml
[6] = biological target: T1, human PD-L2 expressed on 300.19 cells (human); test: FACS competition, PD-1-Ig on hPD-L2 300 cells, mAb 0.12 ug/ml
[7] = biological target: T1, human PD-L2 expressed on 300.19 cells (human); test: FACS on hPD-L2 300 cells, antibody 0.1 ug/ml
[8] = biological target: T1, human PD-L2 expressed on 300.19 cells (human); test: FACS competition, PD-1-Ig on hPD-L2 300 cells, mAb 0.37 ug/ml
[9] = biological target: human PD-L1 expressed on 300.19 cells (human) (UniProt Q9NZQ7); test: FACS competition, PD-1-Ig on hPD-L1 300 cells, mAb 90 ug/ml
[10] = biological target: human PD-L1 expressed on 300.19 cells (human) (UniProt Q9NZQ7); test: FACS competition, PD-1-Ig on hPD-L1 300 cells, mAb 1.1 ug/ml
[11] = biological target: human PD-L1 expressed on 300.19 cells (human) (UniProt Q9NZQ7); test: FACS on hPD-L1 300 cells, antibody 10 ug/ml
[12] = biological target: T1, human PD-L2 expressed on 300.19 cells (human); test: FACS competition, PD-1-Ig on hPD-L2 300 cells, mAb 0.04 ug/ml
[13] = biological target: human PD-L1 expressed on 300.19 cells (human) (UniProt Q9NZQ7); test: FACS blockade, B7-1-hIgG on 300-hPD-L1 cells, mAb 0.0195 ug/ml
[14] = biological target: T1, human PD-L2 expressed on 300.19 cells (human); test: FACS competition, PD-1-Ig on hPD-L2 300 cells, mAb 10 ug/ml
[15] = biological target: human PD-L1 expressed on 300.19 cells (human) (UniProt Q9NZQ7); test: FACS blockade, B7-1-hIgG on 300-hPD-L1 cells, mAb 10 ug/ml
[16] = biological target: human PD-L1 expressed on 300.19 cells (human) (UniProt Q9NZQ7); test: FACS competition, PD-1-Ig on hPD-L1 300 cells, mAb 10 ug/ml
[17] = biological target: human PD-L1 expressed on 300.19 cells (human) (UniProt Q9NZQ7); test: FACS competition, PD-1-Ig on hPD-L1 300 cells, mAb 0.04 ug/ml
[18] = biological target: T1, human PD-L2 expressed on 300.19 cells (human); test: FACS competition, PD-1-Ig on hPD-L2 300 cells, mAb 1.1 ug/ml
[19] = biological target: human PD-L1 expressed on 300.19 cells (human) (UniProt Q9NZQ7); test: FACS blockade, B7-1-hIgG on 300-hPD-L1 cells, mAb 2.5 ug/ml
[20] = biological target: human PD-L1 expressed on 300.19 cells (human) (UniProt Q9NZQ7); test: FACS blockade, B7-1-hIgG on 300-hPD-L1 cells, mAb 1.25 ug/ml
[21] = biological target: human PD-L1 expressed on 300.19 cells (human) (UniProt Q9NZQ7); test: FACS blockade, B7-1-hIgG on 300-hPD-L1 cells, mAb 0.156 ug/ml
[22] = biological target: human PD-L1 expressed on 300.19 cells (human) (UniProt Q9NZQ7); test: FACS competition, PD-1-Ig on hPD-L1 300 cells, mAb 3.3 ug/ml
[23] = biological target: human PD-L1 expressed on 300.19 cells (human) (UniProt Q9NZQ7); test: FACS blockade, B7-1-hIgG on 300-hPD-L1 cells, mAb 5 ug/ml
[24] = biological target: T1, human PD-L2 expressed on 300.19 cells (human); test: FACS competition, PD-1-Ig on hPD-L2 300 cells, mAb 3.3 ug/ml
[25] = biological target: T1, human PD-L2 expressed on 300.19 cells (human); test: FACS competition, PD-1-Ig on hPD-L2 300 cells, mAb 90 ug/ml
[26] = biological target: human PD-L1 expressed on 300.19 cells (human) (UniProt Q9NZQ7); test: FACS blockade, B7-1-hIgG on 300-hPD-L1 cells, mAb 0.0098 ug/ml
[27] = biological target: human PD-L1 expressed on 300.19 cells (human) (UniProt Q9NZQ7); test: FACS blockade, B7-1-hIgG on 300-hPD-L1 cells, mAb '0.0.39' [sic] ug/ml
[28] = biological target: human PD-L1 expressed on 300.19 cells (human) (UniProt Q9NZQ7); test: FACS blockade, B7-1-hIgG on 300-hPD-L1 cells, mAb 20 ug/ml
[29] = biological target: human PD-L1 expressed on 300.19 cells (human) (UniProt Q9NZQ7); test: FACS blockade, B7-1-hIgG on 300-hPD-L1 cells, mAb 0.625 ug/ml
[30] = biological target: human PD-L1 expressed on 300.19 cells (human) (UniProt Q9NZQ7); test: FACS blockade, B7-1-hIgG on 300-hPD-L1 cells, mAb 0.078 ug/ml
[31] = biological target: T1, human PD-L2 expressed on 300.19 cells (human); test: FACS competition, PD-1-Ig on hPD-L2 300 cells, mAb 30 ug/ml
[32] = biological target: human PD-L1 expressed on 300.19 cells (human) (UniProt Q9NZQ7); test: FACS on hPD-L1 300 cells, antibody 1 ug/ml
[33] = biological target: T1, human PD-L2 expressed on 300.19 cells (human); test: FACS on hPD-L2 300 cells, antibody 1 ug/ml
[34] = biological target: human PD-L1 expressed on 300.19 cells (human) (UniProt Q9NZQ7); test: FACS on hPD-L1 300 cells, antibody 0.1 ug/ml
[35] = biological target: T1, human PD-L2 expressed on 300.19 cells (human); test: FACS blockade, PD-1-hIgG1 on PD-L2 300.19 cells
[36] = biological target: T1, human PD-L2 expressed on 300.19 cells (human); test: FACS on hPD-L2 300 cells, supernatant 1 to 100
[37] = biological target: T1, human PD-L2 expressed on 300.19 cells (human); test: FACS, hybridoma supernatant on 300.19 cells expressing human PD-L2
[38] = biological target: T1, human PD-L2 expressed on 300.19 cells (human); test: FACS on hPD-L2 300 cells, supernatant 1 to 10
[39] = biological target: T1, human PD-L2 expressed on 300.19 cells (human); test: FACS on hPD-L2 300 cells, supernatant undiluted

Sequence of UniProt Q9NZQ7 (Q9NZQ7 19-290): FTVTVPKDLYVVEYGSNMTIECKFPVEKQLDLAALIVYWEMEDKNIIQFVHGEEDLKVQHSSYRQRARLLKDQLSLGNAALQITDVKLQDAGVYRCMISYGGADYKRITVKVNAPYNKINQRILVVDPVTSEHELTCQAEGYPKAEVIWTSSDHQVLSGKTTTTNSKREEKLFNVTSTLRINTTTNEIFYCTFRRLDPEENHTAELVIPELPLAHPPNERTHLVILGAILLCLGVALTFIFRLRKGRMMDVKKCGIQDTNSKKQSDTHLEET

B1: 29E.2A3 (antibody, from a related filing, V domains shown)
VH: EVQLQQSGPELVKPGASVKMSCKASGYTFTSYVMHWVKQKPGQGLEWIGYVNPFNDGTKYNEMFKGKATLTSDKSSSTAYMELSSLTSEDSAVYYCARQAWGYPWGQGTLVTVSA
VL: DIVLTQSPASLAVSLGQRATISCRATESVEYYGTSLVQWYQQKPGQPPKLLIYAASSVDSGVPARFSGSGSGTDFSLTIHPVEEDDIAMYFCQQSRRVPYTFGGGTKLEIK
Q: What does the source list for B1?
A: Mean of PE Signal (bound B7-1-Ig) [1]: 770; Mean of PE Signal (bound PD-1-Ig) [2]: 53; Mean of PE signal [3]: 251; Mean of PE Signal (bound PD-1-Ig) [4]: 523; Mean of PE Signal (bound PD-1-Ig) [5]: 65; Mean of PE Signal (bound PD-1-Ig) [6]: 53900; Mean of PE signal [7]: 150; Mean of PE Signal (bound PD-1-Ig) [8]: 52900; Mean of PE Signal (bound PD-1-Ig) [9]: 54; Mean of PE Signal (bound PD-1-Ig) [10]: 51; Mean of PE signal [11]: 235000; Mean of PE Signal (bound PD-1-Ig) [12]: 58800; Mean of PE Signal (bound B7-1-Ig) [13]: 1710; Mean of PE Signal (bound PD-1-Ig) [14]: 53800; Mean of PE Signal (bound B7-1-Ig) [15]: 797; Mean of PE Signal (bound PD-1-Ig) [16]: 52; Mean of PE Signal (bound PD-1-Ig) [17]: 6100; Mean of PE Signal (bound PD-1-Ig) [18]: 56100; Mean of PE Signal (bound B7-1-Ig) [19]: 823; Mean of PE Signal (bound B7-1-Ig) [20]: 788; Mean of PE Signal (bound B7-1-Ig) [21]: 853; Mean of PE Signal (bound PD-1-Ig) [22]: 50; Mean of PE Signal (bound B7-1-Ig) [23]: 853; Mean of PE Signal (bound PD-1-Ig) [24]: 56700; Mean of PE Signal (bound PD-1-Ig) [25]: 55100; Mean of PE Signal (bound B7-1-Ig) [26]: 2540; Mean of PE Signal (bound B7-1-Ig) [27]: 1230; Mean of PE Signal (bound B7-1-Ig) [28]: 811; Mean of PE Signal (bound B7-1-Ig) [29]: 850; Mean of PE Signal (bound B7-1-Ig) [30]: 807; Mean of PE Signal (bound PD-1-Ig) [31]: 53900; Mean of PE signal [32]: 234000; Mean of PE signal [33]: 150; Mean of PE signal [34]: 109000

B2: 4H1 monoclonal antibody (antibody, V domains shown)
VH: DVQLQESGPGLVKPSQSLSLTCTVTDYSITSDYAWTWIRQFPGNKLEWMGYITYRGTTRYNPSLTSRISFTRDTSKNQLFLQLNSVTTEDTGTYCCARSMITTGYYAMDYWGQGTSVTVSS
VL: DIVMTQSHKFMSTSVGDRVSISCKASQDVGISVAWYQQKPGQSPKLLIYWASTRHTGVPVRFTGSGSGTDFTLTISNVQSEDLADYFCQQYSSYPPTFGAGTKLELK
Q: Which results are given for B2?
A: Mean of PE Signal (bound PD-1-Ig) [6]: 52500; Mean of PE Signal (bound PD-1-Ig) [8]: 52400; MFI of bound PD-1-Ig (inversely proportional to blockage) [35]: 21100; Mean of PE Signal (bound PD-1-Ig) [12]: 54700; Mean of PE Signal (bound PD-1-Ig) [14]: 56800; Mean of PE signal [36]: 672; Mean of PE Signal (bound PD-1-Ig) [18]: 54600; MFI [37]: 93; Mean of PE signal [38]: 757; Mean of PE Signal (bound PD-1-Ig) [24]: 56000; Mean of PE Signal (bound PD-1-Ig) [25]: 52200; Mean of PE Signal (bound PD-1-Ig) [31]: 56100; Mean of PE signal [39]: 840

Source: patent US20150197571A1
